9 molecules from patent US20190185565A1 (DEUTSCHES ZENTRUM FUR NEURODEGENERATIVE ERKRANKUNG EV, published 2019) can be followed below.

To fix the notation:
T1: human wild-type TREM2 (membrane bound, isoform 1) stably overexpressed on HEK293 Flp-In cells (human)
T1 construct: also called wt TREM2; human full-length TREM2
T1 chain: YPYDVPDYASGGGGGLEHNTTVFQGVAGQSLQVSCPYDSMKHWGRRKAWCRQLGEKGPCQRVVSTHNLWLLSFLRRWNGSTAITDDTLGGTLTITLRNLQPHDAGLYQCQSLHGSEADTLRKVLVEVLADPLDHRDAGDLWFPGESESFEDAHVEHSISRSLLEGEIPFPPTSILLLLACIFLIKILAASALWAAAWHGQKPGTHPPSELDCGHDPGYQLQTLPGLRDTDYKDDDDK

B1: antibody clone 8A11 (antibody, V domains shown)
VH: EVKLLESGGGLVQPGGSMRLSCAASGFTFTDFYMNWIRQPAGKAPEWLGLIRNKTKGYTTEYNTSVKGRFTISRDNTQNMLYLQMNSLRPEDTATYYCARIGVNNGGSLDYWGQGVMVTVSS
VL: DILIIQSPASLTVSAGARVTMSCKSSQSLLYSENNQDYLAWYQQKPGQFPKLLIYGASNRHTGVPDRFTGSGSGTDFTLTISSVQAEDLADYYCEQTYSYPYTFGAGTKLELK
notes: Rat monoclonal IgG from a hybridoma
B2: antibody clone 1G6 (antibody, V domains shown)
VH: EVKLLESGGGLVQPGGSLRLSCVASGFTFTDFYMNWIRQPAGKAPEWLGLIRNKANGFTTEYNPSVKGRFTISRDNTQHMLYLQMNTLRAEDTATYYCARIGINNGGSLDYWGQGVMVTVSS
VL: DILINQSPASLTVSTGEKVTMSCKSSQSLLYSENKQDYLAWYQQKPGQFPKLLIYGASNRHTGVPDRFTGSGSGTDFTLTINIVQAEDLADYYCEQTYSYPYTFGAGTKLELK
notes: as for B1
B3: antibody clone 21A3 (antibody, V domains shown)
VH: EVKLLESGGGLVQPGGSMRLSCAASGFTFTDFYMNWIRQPAGKAPEWLGLIRNKANGYTTQYNPSVKGRFTISRDNTQNMLYLQMNTLRGEDTATYYCARIGINNGGSLDYWGQGVMVTVSS
VL: DILINQSPASLTVSAGEKVTMSCKSSQSLLYSEKNQDYLAWYQQKPGQSPKLLMYGASYRHTGVPDRFTGSGSGTDFTLTISSVQAEDLADYYCEQTYSYPYTFGAGTKLELK
notes: as for B1
B4: antibody clone 7A12 (antibody, V domains shown)
VH: EVKLLESGGGLVQPGGSMRLSCAASGFTFTDFYMNWIRQPAGKAPEWLGLIRNKANGYTTQYNPSVKGRFTISRDNTQNMLYLQMNTLRGEDTATYYCARIGINNGGSLDYWGQGVMVTVSS
VL: DILINQSPASLTVSAGEKVTMSCKSSQSLLYSEKNQDYLAWYQQKPGQSPKLLMYGASYRHTGVPDRFTGSGSGTDFTLTISSVQAEDLADYYCEQTYSYPYTFGAGTKLELK
notes: as for B1
B5: antibody clone 10C3 (antibody, V domains shown)
VH: EVKLLESGGGLVQPGGSMRLSCAASGFTFTDFYMNWIRQPAGETPEWLGLIRNKTKGYTTEYNPSVKGRFTISRDNTQNMLYLQMNSLRPEDTATYYCARIGTNNGGSLDYWGQGVMVTVSS
VL: DILIIQSPASLTVSAGARVTMSCKSSQSLLYSENNQDYLAWYQQKPGQFPKLLIYGASNRHTGVPDRFTGSGSGTDFTLTISSVQAEDLADYYCEQTYSYPYTFGAGTKLELK
notes: as for B1
B6: antibody clone 18F9 (antibody, V domains shown)
VH: EVKLLESGGGLVQPGGSMRLSCVVSGFTFTDFYMNWIRQAAGKAPEWLGLIRNKVNGYRTEYNPSVKGRFTISRDNIQNMLYLQMNTLRAEDTATYYCARIGINNGGSLDYWGQGVMVTVSS
VL: DILINQSPASLTVSAGEKVTMSCKSSQSLLYSENNQDYLAWYQQKPGQFPKLLIYGASNRHTGVPDRFTGSGSGTDFTLTISSVQAEDLADYYCEQTYSYPYTFGAGTKLELK
notes: as for B1
B7: antibody clone 15C5 (antibody, V domains shown)
VH: EVKLLESGGGLVQPGGSMRLSCAASGFTFTDFYMNWIRQPAGKAPEWLGLIRNKAYGYTTEYNPSVKGRFTISRDNTQDMLYLQMNTLRAEDTATYYCARIGINYGGSLDYWGQGVMVTVSS
VL: DILINQSPASLTVSAGEKVTVSCKSSQSLLYSESNQDYLAWYQQKPGQFPKLLIYGASYRHTGVPDRFTGSGSGTDFTLTISSVQAEDLAHYYCEQTYSYPYTFGAGTKLELK
notes: as for B1
B8: antibody clone 14D8 (antibody, V domains shown)
VH: EVKLLESGGGLVQPGGSMRLSCAASGFTFTDFYMNWIRQPAGKAPEWLGLIRNKANGYTTVYNPSVKGRFTISRDNTQNMLYLQMNTLRGEDTATYYCARIGINNGGSLDYWGQGVMVTVSS
VL: DILINQSPASLTVSTGEKVTMSCRSSQSLLYSEKNQDYLAWYQQKPGQFPKLLIYGASYRHTGVPDRFTGSGSGTDFTLTISSVQAEDLADYYCEQTYSYPYTFGAGTKLELK
notes: as for B1
B9: antibody clone 14D3 (antibody, V domains shown)
VH: EVKLLEFGGGLVQPGGSMRLSCAASGFTFTDFYMNWIRQPAGRAPEWLGLIRNKTKGYTTEYNRSVKGRFTISRDNTQNMLYLQMNSLRPEDTATYYCARIGVNNGGSLDYWGQGVMVTVSS
VL: DILIIQSPASLTVSAGARVTMSCKSSQSLLYSENNQDYLAWYQQKPGQFPKLLIYGASNRHTGVPDRFTGSGSGTDFTLTISSVQAEDLADYYCEQTYSYPYTFGAGTKLELK

In the first assay the target is T1, human wild-type TREM2 (membrane bound, …). The experiment in a line: immunofluorescence on live HEK293 Flp-In cells expressing human full-length TREM2 against empty-vector cells; hybridoma supernatant diluted 1:2. Here is the method: TREM2-reactive supernatants were subsequently screened for their ability to detect TREM2 on the cell surface of HEK293 Flp-In cells stably overexpressing human wild-type TREM2 (Kleinberger et al. 2014). HEK293 Flp-In cells either expressing human full-length TREM2 or empty vector (=control) were cultured in 96-well tissue culture plates, washed twice with PBS, blocked with 2% bovine serum albumin (BSA) in PBS and incubated with the respective TREM2-reactive supernatants (diluted 1:2 in blocking buffer) for 60 minutes on ice. Cells were subsequently washed three times with PBS, fixed with 4% paraformaldehyde for 20 min on room temperature and washed three times with PBS. Binding of TREM2-reactive supernatants was visualized using isotype-specific mouse-anti rat secondary antibodies followed by incubation with a goat anti-mouse tertiary antibody coupled to Alexa-488 (Life Technologies). 4′, 6-diamidino-2-phenylindol (Dapi, Life Technologies) was used as a nuclear counterstain. Images were acquired automatically using a Cytation multi-detection reader (Biotek).
B1: the binding result is on record as “binds”. Same read-out and setting: the result for B2 reads “binds”; that for B3, “binds”; that for B4, “binds”. The same measure, in the same setting: for B5 the value was “binds”; for B6, “binds”. In the case of B7, the binding result was “binds”. For B8, the binding result is given as “binds”.

Another assay has the same target. The experiment in a line: cell-based or functional assay.
Consider B9, for which the “increase of mature TREM2 in the membrane fraction (quantified immunoblot, normalized to immature TREM2)” value was no more than 5 fold.
